Results published in article PMC7781312.

Target: prefusion-stabilized MERS-CoV S ectodomain trimer (MERS-CoV 2P S) (MERS-CoV) (UniProt K9N5Q8)
Experiment: cryo-EM structure

Chain of prefusion-stabilized MERS-CoV S ectodomain trimer (MERS-CoV 2P S) (K9N5Q8 18-1296): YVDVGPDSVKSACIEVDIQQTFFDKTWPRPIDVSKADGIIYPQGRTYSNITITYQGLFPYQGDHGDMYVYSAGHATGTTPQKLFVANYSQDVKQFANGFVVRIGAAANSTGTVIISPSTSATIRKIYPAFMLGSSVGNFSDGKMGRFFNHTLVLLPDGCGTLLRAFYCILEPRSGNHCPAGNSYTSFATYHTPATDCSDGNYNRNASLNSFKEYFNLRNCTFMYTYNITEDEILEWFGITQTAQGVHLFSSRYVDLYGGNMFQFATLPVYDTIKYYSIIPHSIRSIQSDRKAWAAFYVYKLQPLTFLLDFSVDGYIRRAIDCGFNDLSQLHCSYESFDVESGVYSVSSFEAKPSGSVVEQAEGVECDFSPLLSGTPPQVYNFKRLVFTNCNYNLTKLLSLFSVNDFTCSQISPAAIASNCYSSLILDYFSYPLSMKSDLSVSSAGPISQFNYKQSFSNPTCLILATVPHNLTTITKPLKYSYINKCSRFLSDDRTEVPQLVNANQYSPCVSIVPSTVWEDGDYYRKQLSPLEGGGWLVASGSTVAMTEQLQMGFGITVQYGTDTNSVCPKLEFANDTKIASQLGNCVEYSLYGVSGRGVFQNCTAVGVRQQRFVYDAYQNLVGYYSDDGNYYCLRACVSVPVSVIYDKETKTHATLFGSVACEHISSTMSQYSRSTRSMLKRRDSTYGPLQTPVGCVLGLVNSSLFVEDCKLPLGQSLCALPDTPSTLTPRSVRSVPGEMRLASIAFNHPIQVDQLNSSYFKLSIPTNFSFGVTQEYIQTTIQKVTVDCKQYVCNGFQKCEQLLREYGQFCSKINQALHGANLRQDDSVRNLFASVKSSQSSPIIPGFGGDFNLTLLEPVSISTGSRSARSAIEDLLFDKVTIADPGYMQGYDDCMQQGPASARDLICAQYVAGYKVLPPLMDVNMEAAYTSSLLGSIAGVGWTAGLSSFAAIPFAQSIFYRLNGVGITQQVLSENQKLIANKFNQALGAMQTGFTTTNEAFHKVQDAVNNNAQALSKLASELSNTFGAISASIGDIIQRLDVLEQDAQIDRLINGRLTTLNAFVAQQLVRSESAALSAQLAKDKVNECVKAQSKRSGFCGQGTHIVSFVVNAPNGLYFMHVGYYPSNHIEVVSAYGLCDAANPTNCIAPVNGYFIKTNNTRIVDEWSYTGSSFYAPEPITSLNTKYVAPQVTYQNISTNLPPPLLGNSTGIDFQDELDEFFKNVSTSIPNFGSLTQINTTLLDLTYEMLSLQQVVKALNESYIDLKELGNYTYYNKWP

prefusion-stabilized MERS-CoV S ectodomain trimer (MERS-CoV 2P S) (from UniProt K9N5Q8 18-1296) (domain or fragment)
stoichiometry N: 3
